Experimental findings from patent publication US20090053203A1 are described below.

The test addresses receptor for advanced glycated end products (RAGE) (human) (UniProt Q15109). Put plainly: cell-based or functional assay. To be noted: scale: relative to saline-treated controls.

receptor for advanced glycated end products (RAGE) (human), sequence (Q15109 23-404): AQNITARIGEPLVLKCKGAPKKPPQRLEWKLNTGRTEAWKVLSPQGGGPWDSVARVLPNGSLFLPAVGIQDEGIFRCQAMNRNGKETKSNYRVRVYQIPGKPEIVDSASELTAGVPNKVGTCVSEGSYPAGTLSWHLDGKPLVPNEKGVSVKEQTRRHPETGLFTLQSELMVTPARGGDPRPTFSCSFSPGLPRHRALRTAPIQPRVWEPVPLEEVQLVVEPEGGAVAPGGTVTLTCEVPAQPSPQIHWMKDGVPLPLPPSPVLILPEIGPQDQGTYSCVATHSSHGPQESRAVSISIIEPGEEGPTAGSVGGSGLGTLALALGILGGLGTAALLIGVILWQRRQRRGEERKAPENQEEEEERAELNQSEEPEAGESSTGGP

As to glycated hemoglobin (ligand), the Phospbo-PKCa/bII (T638/641) (ELISA, 293 kidney cells, 4 hr) came out at 1.52; the Phospho-ATF2 (T71) (ELISA, 293 kidney cells, 4 hr) came out at 1.61; the Phospho-Akt (S473) (ELISA, 293 kidney cells, 4 hr) was found to be 1.92; the Phospho-Akt (T308) (ELISA, 293 kidney cells, 4 hr) came out at 1.06. Also, the Phospho-ERK (T202/Y204) (ELISA, 293 kidney cells, 4 hr) was 1; the Phospho-IRS1 (S307) (ELISA, 293 kidney cells, 4 hr) came out at 1.56; the Phospho-IRS2 (S731) (ELISA, 293 kidney cells, 4 hr) stood at 1.03; the Phospho-JNK (T183/Y185) (ELISA, 293 kidney cells, 4 hr) was found to be 1.38. The substance further yielded a Phospho-PKCmu (S916) (ELISA, 293 kidney cells, 4 hr) of 0.95; a Total Akt1 (ELISA, 293 kidney cells, 4 hr) of 1.27; a Total Akt2 (ELISA, 293 kidney cells, 4 hr) of 0.81; a Total IRS-1 (ELISA, 293 kidney cells, 4 hr) of 1.07. Besides, the Total IRS-2 (ELISA, 293 kidney cells, 4 hr) was 1.47 and the Total collagen-IV (ELISA, 293 kidney cells, 4 hr) came out at 1.34.
